Experimental data from patent publication US12492252 (SHANDONG BOAN BIOTECHNOLOGY, dated 2025).
Residue numbers refer to the chain shown, from its start.

T1: C-terminal fragment of the full length human GPC3 protein (human, UniProt P51654 359-554)
T1 construct: domain: C-terminal subunit (C-terminal fragment); also called C-terminal of GPC3; 30-kDa C-terminal subunit
T1 sequence (looked up): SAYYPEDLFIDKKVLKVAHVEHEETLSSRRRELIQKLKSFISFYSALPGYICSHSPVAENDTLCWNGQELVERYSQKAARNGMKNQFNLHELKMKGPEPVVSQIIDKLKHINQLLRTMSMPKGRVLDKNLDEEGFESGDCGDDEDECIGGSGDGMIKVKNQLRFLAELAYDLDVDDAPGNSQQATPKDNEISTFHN

B1: anti-human GPC3 IgG1 antibody clone 5 (antibody, V domains shown)
VH: CQSVEESGGRLVTPGTPLTLTCTVSGFSLSTYNMGWVRQAPGEGLEYIGTISSSTGNTYYATWAKGRFTISKTSSTTVDLKITNLTTEDTATYFCVRVNNMGDIWGPGTLVTVSL
VL: AIVMTQTPSSKSVAVGDTVTINCQASESVYKDNRLAWFQQKPGQPPKLLIYLASTLASGVPSRFKGSGSGTEFTLTISDVVCDDAATYYCGGYKDSLFDGFPFGGGTEVVVKR
B2: anti-human GPC3 IgG1 antibody clone 122 (antibody)
heavy: not shown
light: DPVLTQTPSSVSAAVGGTVTINCQSSQNVYNNNRLAWYQQKPGQPPKLLIYFASKLASGVPSRFKGNGSGTQFTLTISGVQCDDAATYYCAGGYNSIVDNGFGGGTEVVVERTVAAPSVFIFPPSDEQLKSGTASVVCLLNNFYPREAKVQWKVDNALQSGNSQESVTEQDSKDSTYSLSSTLTLSKADYEKHKVYACEVTHQGLSSPVTKSFNRGECTS
B3: anti-human GPC3 IgG1 antibody clone 17 (antibody, V domains shown)
VH: CQSVEESGGRLVTPGTPLTLTCTVSGFSLSTYDMSWVRQAPGKGLEYIGWINSGGSPYYARWAKGRFTISKTSSTTVDLKMTSPTTEDTATYFCARHRSGYYGDIWGPGTLVTVSL
VL: DPVLTQTPSSVSAAVGDTVSINCQSSQNVYKNRLAWYQQKPGQPPKLLIYGASTLASGVPSRFKGSGSGTQFTLTISDLECDDAATYYCAGGYSTIVDNTFGGGTEVVVKR
B4: anti-human GPC3 IgG1 antibody clone 74 (antibody, V domains shown)
VH: QCQSVEESGGRLVTPGTPLTLTYTVSGFSLNNYDMSWVRQAPGKGLQYIGWINSGGTAYYASWAKGRFTISKTSSTTVDLKMTSPTTEDTATYFCARHRYGYYGDIWGPGTLVTVSL
VL: DPVLTQTPSSVSAAVGGTVTINCQSSQNVYNNNRLAWYQQKLGQPPKLLIYFASKLASGVPSRFSGSGSGTQFTLTISGVQCDDAATYYCAGGYNTIVDNGFGGGTEVVVKR
B5: anti-human GPC3 IgG1 antibody clone 2 (antibody, V domains shown)
VH: B1 VH with V37I
VL: B1 VL with P45A
B6: anti-human GPC3 IgG1 antibody clone 49 (antibody, V domains shown)
VH: CQSVEESGGRLVTPGTPLTLTCTVSGFSLSTYWMTWVRQAPGKGLEWIGIINPSGSAYYASWAKGRFTISKTSSATVDLKMTSLTAADTATYFCAGGGGMDPWGPGTLVTVSS
VL: DPVLTQTPSSVSAAVGGTVSISCQSSQSIVKNYLSWFQQKPGQPPKRLIYKASTLPSGVPSRFKGSGSGTEFTLTISDLECDDAATYYCAASYSDNIYVFGGGTEVVVKR
B7: anti-human GPC3 IgG1 antibody clone 40 (antibody, V domains shown)
VH: B6 VH with N52S, S54A, A86T
VL: B6 VL
notes: also called parental clone 40; chimeric anti-GPC3 clone 40
B8: anti-human GPC3 IgG1 antibody clone 22 (antibody, V domains shown)
VH: B6 VH with S54T, S56R
VL: B6 VL with S20T, S22N, I29V, V30Y, K31S, Q39K, P56V, K64V, D95G
B9: anti-human GPC3 IgG1 antibody clone 121 (antibody, V domains shown)
VH: B6 VH with S54A, A87V
VL: B6 VL with S20T, S28N, V30I, N32D, A52T, D95G
B10: anti-human GPC3 IgG1 antibody clone 8 (antibody, V domains shown)
VH: B6 VH with P17A, S54G
VL: B6 VL with V30I, Q39H, K51R, K64E
B11: anti-human GPC3 IgG1 antibody clone 41 (antibody, V domains shown)
VH: B6 VH with P17A, S54G, T72A
VL: B6 VL with V30I, Q39H, K51R, K64E, S77N
B12: anti-human GPC3 IgG1 antibody clone 12 (antibody, V domains shown)
VH: B6 VH with Y58F
VL: B6 VL
B13: anti-human GPC3 IgG1 antibody clone 182 (antibody)
heavy: not shown
light: B2 light with G104A, E111K

target: T1, C-terminal fragment of the full length …; assay: ELISA

**Q.** Does B1 bind?
**A.** Result: binds

target: T2, human GPC3 on cells (HepG2 cells expressing full length human GPC3; GPC3-transfected HEK293T cells) (human, UniProt P51654 25-554); assay: flow cytometry on HepG2 cells
T2 construct: whole, on cells; also called GPC3-expressing HepG2 tumor cells

**Q.** Which results are given for B2?
**A.** EC50: 5.3 pM; HepG2 Cell binding (Fold ratio): 129 fold

**Q.** What does the source list for B3?
**A.** EC50: 43 pM; HepG2 Cell binding (Fold ratio): 39.9 fold

**Q.** B4 was tested. Which EC50 did it give?
**A.** Its EC50 is 4.2 pM.

**Q.** And the “HepG2 Cell binding (Fold ratio)” value?
**A.** Its value is 143 fold.

**Q.** For B5, which EC50 is on record?
**A.** Its EC50 is 7.6 pM.

**Q.** What about the “HepG2 Cell binding (Fold ratio)” value of the same binder?
**A.** Its value is 694 fold.

**Q.** B6 was tested. Which EC50 did it give?
**A.** The EC50 was 12 pM.

**Q.** And the “HepG2 Cell binding (Fold ratio)” value?
**A.** Its value is 115 fold.

**Q.** With B7 as the binder, how does the EC50 read?
**A.** Its EC50 is 13 pM.

**Q.** And the “HepG2 Cell binding (Fold ratio)” value?
**A.** The value was 104 fold.

**Q.** For B8, which EC50 is on record?
**A.** The EC50 was 13 pM.

**Q.** What about the “HepG2 Cell binding (Fold ratio)” value of the same binder?
**A.** The value was 121 fold.

**Q.** With B9 as the binder, how does the EC50 read?
**A.** The EC50 was 6.1 pM.

**Q.** What about the “HepG2 Cell binding (Fold ratio)” value of the same binder?
**A.** The value was 74.6 fold.

**Q.** For B10, which EC50 is on record?
**A.** The EC50 was 12 pM.

**Q.** What about the “HepG2 Cell binding (Fold ratio)” value of the same binder?
**A.** The value was 79.5 fold.

**Q.** How did the EC50 turn out when B11 was run?
**A.** The EC50 was 14 pM.

**Q.** And the “HepG2 Cell binding (Fold ratio)” value?
**A.** The value was 116 fold.

**Q.** What does the source list for B12?
**A.** EC50: 14 pM; HepG2 Cell binding (Fold ratio): 125 fold

target: T3, human GPC3 protein (human, UniProt P51654 25-559); assay: screening of recombinantly expressed rabbit clones (before the change to human constant regions)
T3 construct: also called GPC3 antigen; human GPC3 proteins

**Q.** Does B1 bind?
**A.** Result: binds

target: T4, full length human GPC3 His (human, UniProt P51654 25-559, limits assumed); assay: SPR (Biacore T200), full length human GPC3 His immobilised, IgG1 in solution
T4 construct: also called full length human GPC3 protein; not shown: His tag

**Q.** With B2 as the binder, how does the Kd read?
**A.** The Kd was 200 pM.

**Q.** And the RuMax?
**A.** Its RuMax is 17.3.

**Q.** What about the koff of the same binder?
**A.** Its koff is 0.0018 s⁻¹.

**Q.** Which Kd does the source give for B13 here?
**A.** The Kd was 20 pM.

**Q.** And the RuMax?
**A.** Its RuMax is 24.3.

**Q.** What about the koff of the same binder?
**A.** The koff was 0.0019 s⁻¹.

**Q.** Which Kd does the source give for B3 here?
**A.** Its Kd is 200 pM.

**Q.** What about the RuMax of the same binder?
**A.** The RuMax was 10.7.

**Q.** What about the koff of the same binder?
**A.** Its koff is 0.0037 s⁻¹.

**Q.** What does the source list for B4?
**A.** Kd: 20 pM; RuMax: 24.3; koff: 0.00034 s⁻¹

**Q.** B5 was tested. Which Kd did it give?
**A.** The Kd was ~490 pM.

**Q.** What about the RuMax of the same binder?
**A.** The RuMax was 2.

**Q.** And the koff?
**A.** The koff was 0.00039 s⁻¹.

**Q.** B6 was tested. Which Kd did it give?
**A.** Its Kd is 900 pM.

**Q.** And the RuMax?
**A.** Its RuMax is 1.7.

**Q.** And the koff?
**A.** Its koff is 0.0017 s⁻¹.

**Q.** Which Kd does the source give for B7 here?
**A.** The Kd was 600 pM.

**Q.** What about the RuMax of the same binder?
**A.** The RuMax was 2.4.

**Q.** What about the koff of the same binder?
**A.** The koff was 0.0018 s⁻¹.

**Q.** What does the source list for B8?
**A.** Kd: 1600 pM; RuMax: 2.9; koff: 0.00052 s⁻¹

**Q.** Which results are given for B9?
**A.** Kd: 500 pM; RuMax: 2; koff: 0.0015 s⁻¹

**Q.** With B10 as the binder, how does the Kd read?
**A.** The Kd was 100 pM.

**Q.** What about the RuMax of the same binder?
**A.** Its RuMax is 3.7.

**Q.** And the koff?
**A.** The koff was 0.00042 s⁻¹.

**Q.** What does the source list for B11?
**A.** Kd: 1300 pM; RuMax: 1.49; koff: 0.0032 s⁻¹

**Q.** What does the source list for B12?
**A.** Kd: 600 pM; RuMax: 1.4; koff: 0.0016 s⁻¹
